According to the DeepSol protein solubility set:

Test: soluble on expression in E. coli; label from the status in PepcDB or PDB records
With “MGSDKIHHHHHHMRPKILFVVNVDWFFVSHRLPIAVAAQNVGYDVHIACQVTDKKQELEGYGFTVHSISLDRSGTSVLKEFQTMLSIYRLIKKISPALMHMITVKPVIYAGIAARILGVSKVASISGLGFIFIAEGFKSKLLKSLITILYKLALNDGKSRVIFQNDSDKGLFIRRGIISDSNTLLVRGSGVDLDKYQVKPEPESYPVIVLLARLLIDKGVLEFVQAAEILKSKGVPCKMVLAGDTDENPKSVSKNQITDWVNKGIVEYWGYSKDVNSTYANCHIAVLPSYREGLPKSLIEAAACGRAVITTDVPGCRDAITPNKTGLLVPVKSSLELALAIETLCNDSKLRQSLGQEGRQLAEQAFDIKSVIQIHLNLYADLLKGKPSV” the “soluble on expression in E. coli” value was “not soluble”. With “MIISAEGDVSIHHCFEAMLISLQEDYRQNTLRQLSRDDIKAGINYVKHYGKYKERTVRVLITALEAPQLYTACFSSNHGIKELAYQLEALGENRTRITYSYDYHPLDIFQKANQFIVGKLFKKSLERQSQAQLAALIQYAKQLQQPSSL” the “soluble on expression in E. coli” value was “not soluble”. For “SGSDVRDLNALLPAVPSLGGGGGCALPVSGAAQWAPVLDFAPPGASAYGSLGGPAPPPAPPPPPPPPPHSFIKQEPSWGGAEPHEEQCLSAFTVHFSGQFTGTAGACRYGPFGPPPPSQASSGQARMFPNAPYLPSCLESQPAIRNQGYSTVTFDGTPSYGHTPSHHAAQFPNHSFKHEDPMGQQGSLGEQQYSVPPPVYGCHTPTDSCTGSQALLLRTPYSSDNLYQMTSQLECMTWNQMNLGATLKG”, the “soluble on expression in E. coli” value was “soluble”. For “MTTELETSFADLGLSAPILSALTDLGYEKPSPIQLECIPHLLNGRDVLGMAQTGSGKTAAFGLPLLHNIKADLKSPQVLVLAPTRELAVQVAEALSSFSKHINGVNVVALYGGQRYDVQLRALRQGPQVVVGTPGRLLDHLKRGTLNLSNLSGLVLDEADEMLRMGFIEDVETIMAQIPAEHQTALFSATMPEAIRRITRRFMKEPQEVRIQSSVTTRPDISQSYWRVGGGYRKNEALVRFLEAEDFDAAIIFVRTKNATLEVAEALERSGYNSAALNGDMNQALREQTLERLKDGRLDILIATDVAARGLDVERISLVVNYDIPMDSESYVHRIGRTGRAGRAGRALLFVENRERRLLQNIERTMKLTIPEVELPNADLLSERRLAKFAAKVSQQLESSDLDMYRALLAKLQPEEEFDIETLAAALLKMAQGERPLILPPEAPRRPQREFNSRDDRGNDRGSRDRGDSRRDNRSDSRSADSRDGGERPARRERRDVGEMELYRIEVGRDDGVEVRHIVGAIANEGDISSRYIGNIKLFASHSTIELPKGMPGEMLSHFTRTRILNKPLNMQLLGDAQPHERRERPAGGNGGERRGGGRPFSGERREGAGAPPRRSFSGDRAPTGGGERRGNRDGQRSAAPRRDDAAAPAAAAAAPARRRFGDA”, the “soluble on expression in E. coli” value was “not soluble”. With “EGLLNNHLDIPTATTQALTIQPSASYRINDHWSVGAALGIQYGMYEVETKGALNFNDEDQDTQLNGRVGVLYEATPGTRLGLSYSSETEFEFDNSNSIAPQQLIFSAYHEVNDDLAVMWNVNWQDWSEYTTTLKAADLVDVETQDTYQIALGTQYKLNEKMMWNAGFAFDTSMYESQSNGDITVPTGKAYRIGTGIDYKLDSENSIGFAFEAVLMESSETPRLQAGFDEPALYFMSMSYNWKN” the “soluble on expression in E. coli” value was “not soluble”. With “MVADVNLKTGEVGTRIAEINSNSDKRYVQRIIDEPKFSLMANLALSDADKSSTVVHFKASVRKGEKNLTNCIRDGLQEHFGKKIVSLAGQFIIQTGKARLHVMPDFPGCPFENNAEVDKWLNYFEMSAPLICATVMHSYDPGHNLRLEHTHCYSDHGDAGHYHYDVTPETVSYEGWFAPASKIYRIDEIKNR” the “soluble on expression in E. coli” value was “not soluble”. With “QGKPREAAQHLEAEASRASGAQRNQLLADAAFAWHEAGDTARAQVLVRQVSVQQLTGESKARFVLLLGELALANRQPVRAFQYFGESSSGLSKKLQIRWLLGRAAALEANGDAFGAAQQRARADQALLGKARNENQAAITRLLAGLDHEVLLTRTAALPVGDPLYHFVGRVLLSRGEALPQPLEGSVQGSVGSSQRPSADTDGYRPPLKLAVLLPLTGSLATAAAPVRDGFLAGYYAETRRRPDLDFFDTGSTPVGAKAAYAKAIAAGADFVVGPLGRDEVSALFSQGQLSIPLLALNRSTGDRVSLPSGSASFSLAPEDDGVIAADYLLAQGQRNVIVIGSNDDVGRRGVQAFMDRFRARGGQVLAALGVADVPGDLGPRLRGADRADAVFLAVRGPTARVLAPQLASLGLSSKPQVGTSQLVLGTGKPEEDTLLDGIVYPTEPWSVQGVKSIPSAADVAVRLPNMRGAALRLFAFGVDAWKLSVYLEGLSAGGAGGGLRGATGTLRLDDSGNVIRIPIWATFRNGQSIPVEML” the “soluble on expression in E. coli” value was “not soluble”.
